Consider 40 sequences from the nanobody polyreactivity screen of Harvey et al. (2022).

This data set can be described thus: yeast display, Sf9 membrane polyspecificity reagent, FACS + sequencing; frameworks hold sequencing errors. In outline: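 Sorting gates, low and high (top ~1%), were placed on anti-HA fluorescence to track expression and on streptavidin fluorescence to track reagent binding. A clone's polyreactivity label is taken from the gate it came out of. The reagent was 10% biotinylated, detergent-solubilized Sf9 membrane, applied for 1 hour at 4 °C to galactose-induced yeast display cells.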
“QVQLVESGGGLVQAGGSLRLSCDASGRTFDVYTKGWYRQAPGKERELVDANNGGGSTYYADSVKGRFTISRDNAKNTVYLQMNSLKPEDPAVFYCAAKFRAGRSSYRGSPRYDSWGQGTHVTVSS”: the “polyreactivity (PSR sort gate)” value is on record as “high polyreactivity”. For the sequence “QVQLVESGGGLVQAGGSLRLSCDASGRTFKYYAMGWYRQAPGKERELVAVITSGGSTYYADSVKGRFTISRDNAKNTVYLQMNSLKPEDTAVYYCAKSSHAREYYYWGQGTQVTVSS”, the “polyreactivity (PSR sort gate)” value is given as “low polyreactivity”. The value for “QVQLVESGGGLVQAGGSLRLSCDASGRTFLTNTMGWYRQAPGKERELVAAISSGGSTKYADSVKGRFTISRDNAKNTVYLQMNSLKPEDNAVYYCAATGWRYGYKYYYWGQGTQVTVSS” was “high polyreactivity”; that for “QVQLVESGGGLVQAGGSLRLSCDASGRTFPEYGMGWYRQAPGKEREFVAAISTRGGSTYYANSVKGRFTISRDNAKNTVYLQMNSLKPEDTAVYYCAAKYPGGETYPFDYWGQGTQVTVSS” was “low polyreactivity”. The value for “QVQLVESGGGLVQAGGSLRLSCDASGRTFRYYAMGWSRQAPGKERELVAAISASGGSTFYADSVKGRFTISRDNAKNSVYLQMKSLKPEDTAVYYCAAYHYCVFPYKQYDYWGQGTQVTVSS” was “high polyreactivity”; that for “QVQLVESGGGLVQAGGSLRLSCDASGSIFFSYAMGWYRQAPGTEREFVAAINSDDASTYADSVKGRFTISRDNAKNTVYLQMNSLKPEDTAVYYCADSFLWSWYDYWGQGTQVTVSS” was “low polyreactivity”. The value for “QVQLVESGGGLVQAGGSLRLSCDASGSIFGSYVMGWSRQAPGKERELVAAISSSGASTYYADSVKGRFTISRDNAKNTVYLQMNSLKPEDTAVYYCATTRRPYVRGYPHYYWGQGTQVTVSS” was “high polyreactivity”; that for “QVQLVESGGGLVQAGGSLRLSCDASGSIFIPYAMGWYRQAPGKERELVAAISGSGTSTNYADSVKGRFTISRDNAKNTVYLQMNSLKPEDTAVYYCAARLPYGYLRSKFYYWGQGTQVTVSS” was “high polyreactivity”; that for “QVQLVESGGGLVQAGGSLRLSCDASGSIFNRNVMGWYRQAHGKERELVAVITGSGDSTFYADSVKGRFTISRDNAKNTVYLQRNSLIPDDTAVYYCNARLVSGGYYYWGLGTQVTVSS” was “low polyreactivity”.

In the case of “QVQLVESGGGLVQAGGSLRLSCDASGSIFPLYAMGWYRQAPGKERELVAAITSGTSTNYADSVKGRFTISRDNAKNTVYLQMNSLKPEDTAVYYCAADVYTRFWRVYRFDYWGQGTQVTVSS”, the “polyreactivity (PSR sort gate)” value was “low polyreactivity”.

As for “QVQLVESGGGLVQAGGSLRLSCDASGSIFRPNAMGWYRQPPGKERELVAAITWIAGGTYYADSVKGRFTISRDNAKNTVYLQMNSLKPEDTAVYYCAARWYFQTGVGRYYHYDYWGQGTQVTVSS”, the “polyreactivity (PSR sort gate)” value was “high polyreactivity”. For “QVQLVESGGGLVQAGGSLRLSCDASGSIFSQYAMGWDRQAPGKEWELVAAITWSGGSTYYADSVMGRFTFSRDNAKNTVYLQMNSLKPEDTEVYYCAATGYYYTRSSTWYRYYYWGQGTQVTVSS” the value was “high polyreactivity”. The value for “QVQLVESGGGLVQAGGSLRLSCDASGSIFSYYAMGWYRQAPGKERELVAAITYRGGSTFYADSVKGRFTLSRDNAKNTVYFQMNRLKPEDTAVYYCATRYYVDQRYQYKYDYWGQGTQVTVSS” was “high polyreactivity”. As to “QVQLVESGGGLVQAGGSLRLSCDASGSIFVLNAMGWYRQAPGKERELVAAISYSGGSTYYADSVKGRFTISRDNAKNTVYLQMNSLKPEDTAVYYCAADLVSYYGYSSEYEYWGQGTQVTVSS”, the “polyreactivity (PSR sort gate)” value is given as “high polyreactivity”. For “QVQLVESGGGLVQAGGSLRLSCDASGSTFIYYTMGWYRQAPGKERELVAAINGGGGSTYYADSVKGRFTISRDNAKNTVYLQMNSLKPEDTAVYYCATDPWHRAWGYGWGYNYWGQGTQVTVSS” the value was “low polyreactivity”; for “QVQLVESGGGLVQAGGSLRLSCDASGSTFPKYAMGWYRQAPGKEWELVASISARGGGTHYADSVKGRFTISRDNAKNTVYLQMNSLKPEDTAVYYCNDVAHRQAQGAWGPGTQVTVSS”, “low polyreactivity”. For the sequence “QVQLVESGGGLVQAGGSLRLSCDDSGGIFQENAMGWYTQAPGKERELVATSTRSTGSTYYADSVKGRFTISRDTAKNTVYLQMNSLKPEDTAVYYCAARRLSQYYRYAYKYDYWGQVTQVTVSS”, the “polyreactivity (PSR sort gate)” value is “high polyreactivity”.

“QVQLVESGGGLVQAGGSLRLSCDDSGSIFWWYTMGWYRQAPGKERELVAAITWNADGTYYADSVKGRFTISRDNAKNTVYLPINSLKPEDTAVYYCAADQYYLDWGGGYDYWGQGTQLTVSS”: the “polyreactivity (PSR sort gate)” value is listed as “low polyreactivity”. With “QVQLVESGGGLVQAGGSLRLSCDDSGTFFMGWNIPAPRKERELVAGISISDGSTYYADSVKGRFTISRDNAKNSVYLQMNSLKPEDTAVYYCAADSHYLYDYWGQGTQVTVSS”, the “polyreactivity (PSR sort gate)” value was “low polyreactivity”. For “QVQLVESGGGLVQAGGSLRLSCGASGFFFEPNSMGWYRQATGKERELVAAISSGGSTYADSVKGRFTISRDNAKNPVYLQMNSLKPEDTAVYYCAARPNQSYYGLYYYWGQGTQVTVSS” the value was “low polyreactivity”.

In the case of “QVQLVESGGGLVQAGGSLRLSCGASGFIFGSYAMGWYRQAPGKERELVAAISWSGGGTYYADSVKGRFTISRDNAKNTVYLQMNRLNPEDTAVYYCGALTRYKTASGYDYWGQGTQVTVSS”, the “polyreactivity (PSR sort gate)” value was “high polyreactivity”. For “QVQLVESGGGLVQAGGSLRLSCGASGGIFYLYAMGWSRQAPGKERELVAAITWSADSTYYADSVKGRFTISRDNAKNTVYLQMNSLKPEDTAVYYCNADVAWQYGKGWSWDIDDYWRQGTQVTVSS” the value was “low polyreactivity”; for “QVQLVESGGGLVQAGGSLRLSCGASGRIISKYAMGWYRQAPGKERELVAAITSRGGNTYYAVSVKGRFTISRDNAKNTVYFQMYSLNPEDTAVYSCNTSPQSRYVFGRVDSWGQGTQVTVSS”, “high polyreactivity”.

“QVQLVESGGGLVQAGGSLRLSCGASGRTFFWYDMGWYRQAPGKERELVAAISSSTRTKYADSVKGRFTISRDNAKNTVYLQMNSLKPEDSAVSYCAATSDYYHYWYYSSVRRFDYWGQGTQVTVSS”: the “polyreactivity (PSR sort gate)” value was “high polyreactivity”. The value for “QVQLVESGGGLVQAGGSLRLSCGASGRTFGRYAMGWYRQAPGKERELVDAITWSGGSTYYADSVKGRFTISRDNAKNTVYLQMNSLKPEDTAVYYCAASGYPIYHDDYWGQGTQVTVSS” was “low polyreactivity”. For the sequence “QVQLVESGGGLVQAGGSLRLSCGASGRTFISNAMGWYRQAPGKERELVATINSGGSTNYADSVKGRFTISRDNAKNTVYLQMNSLKPEDTAVYYCARRVRYKHYDYWGQGTQVTVSS”, the “polyreactivity (PSR sort gate)” value is reported as “high polyreactivity”.

As for “QVQLVESGGGLVQAGGSLRLSCGASGSIFWVYAMGWYRQAPGKERELVAAISNSGSTNYADSVKGRFTISRDNAKNTVYLQMNSLKPADTAVYYCAKDSLVDHVGGYDYWGQGTQVTVSS”, the “polyreactivity (PSR sort gate)” value is “low polyreactivity”. For “QVQLVESGGGLVQAGGSLRLSCGGSGSTFYVNAMGWYRQAPGKEREFVAAITWNSGSTYYADSVKGRFTISRDNAKNTVYLQMHSLKPEDTAVYYCAAVLSVRVYGYDYWGQGTQVTVSS” the value was “low polyreactivity”; for “QVQLVESGGGLVQAGGSLRLSCPASGFIYWSYAMGWYRQAPGKERELVADIDSDASTDYADSVKGRFTITRDNAKNTVYLQMNSLKPEDTAVYYCAALASIQQYPGNFYYWGQGTQVTVSS”, “high polyreactivity”; for “QVQLVESGGGLVQAGGSLRLSCPASGFNFSHNAMGWYRQAPGKERELVAAITWSGAITSYADSVKGRFTISRDNAKNTVYLQMNILKPEDTAVYYCAKLWSWDLSRYGPRVDYWGQGTQVTVSS”, “low polyreactivity”. For “QVQLVESGGGLVQAGGSLRLSCPASGFTFRRYAMGWSRQQPGKESELDAAITRNGGSTYYADSVKGRFTISRDNAKNTVYLLINRLKPEDTAVYYCNAVLYTPVYDCFDSWGQGTQVTVSS” the value was “high polyreactivity”.

“QVQLVESGGGLVQAGGSLRLSCPASGIIFYGYTMGWYRQEPGKERELVAAISRSGGRTYYADSVKGRFTISRDNAKYTVYLQMNSLKPEDTAVYYCAATGSYSDRVEDEFWGQGTQVTVST”: the “polyreactivity (PSR sort gate)” value was “high polyreactivity”. On to “QVQLVESGGGLVQAGGSLRLSCPASGITFHGYAMGWYTQEPGKERELVAAITRGGSTYYADSVKGRFTISRDNAKNTVYLQMNSLKPEDTAVYYCAARRVGYSTNYYHYNYWGQGTQVSVSS”, for which the “polyreactivity (PSR sort gate)” value is reported as “high polyreactivity”.

Turning to “QVQLVESGGGLVQAGGSLRLSCPASGLIFRRNVMGRYRQAPGKERELVAAISRGGSTYNADSVKGRFTISRDNAKNTVFLQMNSLNPEDTAVYYCAAAYTRYVVRGDFWGQGTQVTVSS”, the “polyreactivity (PSR sort gate)” value is on record as “high polyreactivity”. For the sequence “QVQLVESGGGLVQAGGSLRLSCPASGRIFKSYAMGWYRHAPGKERELVAAINWSGGSKYYADSVKGRFTISRDNAKNTVYLQMNSLKPEDTAVYYCAAYFYGRWPYGTGYYYWGQGTQVTVSS”, the “polyreactivity (PSR sort gate)” value is “high polyreactivity”.

As to “QVQLVESGGGLVQAGGSLRLSCPASGRIFYIYTMGWYRQAPGKERELVASITYNGGSTYYADSVKGRFTISRDNAKNTVYLQMNSLKPEDTAVYYCNANSRSPTYRYRSWPYNYWGQGTQVTVSS”, the “polyreactivity (PSR sort gate)” value is recorded as “high polyreactivity”.

With “QVQLVESGGGLVQAGGSLRLSCPASGRIIGGNAMGWYRQAPGKEREFVAAIRASGGSTHYADSVKGRFTISRDNAKNTVYLQMNSLKPEDTAVYDCNALSRNTHLYDYWGQGTQVTVSS”, the “polyreactivity (PSR sort gate)” value was “high polyreactivity”. For “QVQLVESGGGLVQAGGSLRLSCPASGRIVANAMGWYIQAPGKERELVAAISSVGSTNYADSVKGRFTISRDNAKNTVYLQMNSLKPEDTAVYYCAARGYRWYIAVDFWGQGTQVTVSS” the value was “low polyreactivity”; for “QVQLVESGGGLVQAGGSLRLSCPASGRIYGYYVMGWYRQAPGKERELVASITSGGSTYYADSVKRRFTISRDNAKYTVYFQMNSLKPEDTAVYDCAARRAWSWKIYDYWGQGTQVTVSS”, “high polyreactivity”.

For “QVQLVESGGGLVQAGGSLRLSCPASGRTFDYNAMGWYRQAPGKERELVAAITSSGGSTYYADSVKGRFTISRDNAKNTVYLQMNSLKPEDSAVYYCATDGQSPYYIYYWGQGTQVTVSS”, the “polyreactivity (PSR sort gate)” value is “low polyreactivity”.
